This is an account of results in the supplement of paper PMC9233669.

The test system of one data set is biotinyl-Phe-oxazolone. The data set can be described thus: self-aminoacylation, catalytic enhancement (BFO) (fold over background); higher = more active; k-Seq, kA / k0A0; sequences stand for … in GGGAAUGGAUCCACAUCUACGAAUUC…UUCACUGCAGACUUGACGAAGCUG
The procedure, abridged:
(§1)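 The uncatalyzed rate is the low-activity peak of a bimodal Gaussian fit, and catalytic enhancement is median kA divided by it. The kA values came from pseudo-first-order fits, with 1000 bootstraps, of per-sequence fraction reacted measured by streptavidin capture, triplicate qPCR and Illumina sequencing. Mutagenized RNA pools with a 21-nt variable region (0.43 μM) were reacted with each biotinyl-aminoacyl-oxazolone at 2–1250 μM in 50 μL HEPES/NaCl/KCl/MgCl2/CaCl2 buffer with 5% acetonitrile, pH 6.9–7.0, for 90 minutes at room temperature.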

The test system of a further data set is biotinyl-Ile-oxazolone. The data set can be described thus: self-aminoacylation, catalytic enhancement (BIO) (fold over background); higher = more active; k-Seq, kA / k0A0; sequences stand for … in GGGAAUGGAUCCACAUCUACGAAUUC…UUCACUGCAGACUUGACGAAGCUG
The method in brief:
as §1

For a further data set, the system named is biotinyl-Met-oxazolone. The data set can be described thus: self-aminoacylation, catalytic enhancement (BMO) (fold over background); higher = more active; k-Seq, kA / k0A0; sequences stand for … in GGGAAUGGAUCCACAUCUACGAAUUC…UUCACUGCAGACUUGACGAAGCUG
The method in brief:
as §1

In a further data set the test system is biotinyl-Val-oxazolone. As to the kind of experiment: self-aminoacylation, catalytic enhancement (BVO) (fold over background); higher = more active; k-Seq, kA / k0A0; sequences stand for … in GGGAAUGGAUCCACAUCUACGAAUUC…UUCACUGCAGACUUGACGAAGCUG
The procedure, abridged:
as §1

The next data set relates to biotinyl-Leu-oxazolone. The data set can be described thus: self-aminoacylation, catalytic enhancement (BLO) (fold over background); higher = more active; k-Seq, kA / k0A0; sequences stand for … in GGGAAUGGAUCCACAUCUACGAAUUC…UUCACUGCAGACUUGACGAAGCUG
The procedure, abridged: as §1

Another data set concerns biotinyl-Trp-oxazolone. As to the kind of experiment: self-aminoacylation, catalytic enhancement (BWO) (fold over background); higher = more active; k-Seq, kA / k0A0; sequences stand for … in GGGAAUGGAUCCACAUCUACGAAUUC…UUCACUGCAGACUUGACGAAGCUG
The method in brief:
as §1

This sample holds only a part of the variants without activity.

Take “AAGUUUGCUAAUAAUUGCAAG [Fam3.1 aminoacylation ribozyme variant]”: the self-aminoacylation in the data set with biotinyl-Phe-oxazolone stood at 1.1; in the data set with biotinyl-Ile-oxazolone, 0.961; with biotinyl-Met-oxazolone it was 0.862; with biotinyl-Val-oxazolone, 0.857; in the data set on biotinyl-Leu-oxazolone it was 0.877; in the data set on biotinyl-Trp-oxazolone, 0.832.
With “AUUCAGCUAAGUCAUCGGGUG [Fam2.2 aminoacylation ribozyme variant]”, the self-aminoacylation is 24.6 in the data set on biotinyl-Phe-oxazolone; 2.96 in the data set with biotinyl-Ile-oxazolone; 3 in the data set with biotinyl-Met-oxazolone; 2.96 in the data set with biotinyl-Val-oxazolone; 3.99 in the data set with biotinyl-Leu-oxazolone; 2.81 in the data set with biotinyl-Trp-oxazolone.
Regarding “CUACUUCAAAUAAUCGGUCCG [Fam1A.1 aminoacylation ribozyme variant]”, the self-aminoacylation in the data set with biotinyl-Phe-oxazolone worked out at 2.68; in the data set with biotinyl-Ile-oxazolone it was 0.585; in the data set with biotinyl-Met-oxazolone, 0.599; with biotinyl-Val-oxazolone, 0.657; with biotinyl-Leu-oxazolone, 0.654; with biotinyl-Trp-oxazolone, 1.76.
As for “AUUCACCUCGGUCAUCCGGUG [Fam2.2 aminoacylation ribozyme variant]”, the self-aminoacylation in the data set with biotinyl-Phe-oxazolone was found to be 78.8; in the data set on biotinyl-Ile-oxazolone it was 6.84; in the data set with biotinyl-Met-oxazolone, 12.2; with biotinyl-Val-oxazolone, 7.28; in the data set with biotinyl-Leu-oxazolone it was 14; in the data set with biotinyl-Trp-oxazolone, 11.1.
For “UAGUUUGCUAAUCGUCGCAAG [Fam3.1 aminoacylation ribozyme variant]”, the self-aminoacylation with biotinyl-Phe-oxazolone turned out to be 1.65; in the data set with biotinyl-Ile-oxazolone, 1.62; in the data set with biotinyl-Met-oxazolone it was 1.51; in the data set on biotinyl-Val-oxazolone it was 1.31; with biotinyl-Leu-oxazolone, 1.11; with biotinyl-Trp-oxazolone, 1.59.
Turning to “AGUGCCCUGGUCAUCGAGUGA [Fam2.1 aminoacylation ribozyme variant]”, the self-aminoacylation in the data set on biotinyl-Phe-oxazolone was found to be 67.6; in the data set with biotinyl-Ile-oxazolone it was 6.36; in the data set on biotinyl-Met-oxazolone it was 12.5; in the data set on biotinyl-Val-oxazolone, 5.79; in the data set on biotinyl-Leu-oxazolone it was 14.5; with biotinyl-Trp-oxazolone, 13.6.
For “CCACAGUUCAAGCACUCGGUC [Fam1B.1 aminoacylation ribozyme variant]”, the self-aminoacylation in the data set with biotinyl-Phe-oxazolone came to 3.53; in the data set with biotinyl-Ile-oxazolone it was 1.16; in the data set on biotinyl-Met-oxazolone it was 1.3; in the data set with biotinyl-Val-oxazolone, 1.62; in the data set with biotinyl-Leu-oxazolone it was 1.73; with biotinyl-Trp-oxazolone, 0.897.
As for “AAGUUUGCUAAUACUCUCAAG [Fam3.1 aminoacylation ribozyme variant]”, the self-aminoacylation amounted to 0.931 in the data set on biotinyl-Phe-oxazolone; 0.693 with biotinyl-Ile-oxazolone; 0.512 with biotinyl-Met-oxazolone; 0.721 with biotinyl-Val-oxazolone; 0.63 with biotinyl-Leu-oxazolone; 0.527 with biotinyl-Trp-oxazolone.
On to “CCACACCUCAAGCAAUCGGUU [Fam1B.1 aminoacylation ribozyme variant]”, for which the self-aminoacylation in the data set with biotinyl-Phe-oxazolone stood at 0.882; in the data set with biotinyl-Ile-oxazolone, 1.43; in the data set with biotinyl-Met-oxazolone it was 1.14; in the data set on biotinyl-Val-oxazolone, 2.1; in the data set on biotinyl-Leu-oxazolone, 1.98; in the data set on biotinyl-Trp-oxazolone, 1.57.
For “GUGACCCUGGUCAUCGAGUGA [Fam2.1 aminoacylation ribozyme variant]”, the self-aminoacylation stood at 144 in the data set on biotinyl-Phe-oxazolone; 7.41 in the data set on biotinyl-Ile-oxazolone; 21.7 in the data set with biotinyl-Met-oxazolone; 7.42 with biotinyl-Val-oxazolone; 19.6 in the data set on biotinyl-Leu-oxazolone; 17.8 in the data set on biotinyl-Trp-oxazolone.
For “AUUACCCUGGGCAUCGAGUUA [Fam2.1 aminoacylation ribozyme variant]”, the self-aminoacylation in the data set with biotinyl-Phe-oxazolone worked out at 1.15; in the data set with biotinyl-Ile-oxazolone, 0.909; with biotinyl-Met-oxazolone it was 0.642; with biotinyl-Val-oxazolone it was 1.11; in the data set with biotinyl-Leu-oxazolone, 0.805; in the data set on biotinyl-Trp-oxazolone, 0.678.
On to “CUUUUUCAAACAAUCGGUCUG [Fam1A.1 aminoacylation ribozyme variant]”, for which the self-aminoacylation in the data set on biotinyl-Phe-oxazolone came out at 6.81; with biotinyl-Ile-oxazolone, 0.86; with biotinyl-Met-oxazolone it was 0.67; in the data set with biotinyl-Val-oxazolone it was 0.815; in the data set with biotinyl-Leu-oxazolone, 0.89; in the data set on biotinyl-Trp-oxazolone, 3.86.
Consider “CCACACUUCAAGUACUCGGUC [Fam1B.1 aminoacylation ribozyme variant]”, for which the self-aminoacylation was found to be 0.703 with biotinyl-Phe-oxazolone; 1.17 with biotinyl-Ile-oxazolone; 1.06 in the data set on biotinyl-Met-oxazolone; 1.09 in the data set on biotinyl-Val-oxazolone; 0.875 in the data set on biotinyl-Leu-oxazolone; 0.789 with biotinyl-Trp-oxazolone.
Take “AUUACCCUGGUUAGCGAGUGA [Fam2.1 aminoacylation ribozyme variant]”: the self-aminoacylation came to 22.1 in the data set with biotinyl-Phe-oxazolone; 2.2 with biotinyl-Ile-oxazolone; 4.21 in the data set on biotinyl-Met-oxazolone; 2.1 in the data set on biotinyl-Val-oxazolone; 4.28 in the data set on biotinyl-Leu-oxazolone; 5.27 in the data set on biotinyl-Trp-oxazolone.
“AUUAACCCAGGUCAUCGGGUG [Fam2.2 aminoacylation ribozyme variant]”: the self-aminoacylation with biotinyl-Phe-oxazolone is 36.2; with biotinyl-Ile-oxazolone, 4.38; with biotinyl-Met-oxazolone, 6.61; in the data set with biotinyl-Val-oxazolone, 3.58; in the data set with biotinyl-Leu-oxazolone, 8.17; in the data set on biotinyl-Trp-oxazolone, 5.58.
Turning to “AUUCACCUAUGGCAUCGGGUG [Fam2.2 aminoacylation ribozyme variant]”, the self-aminoacylation in the data set on biotinyl-Phe-oxazolone was 11.9; in the data set on biotinyl-Ile-oxazolone, 1.96; in the data set on biotinyl-Met-oxazolone it was 2.41; with biotinyl-Val-oxazolone, 1.94; in the data set with biotinyl-Leu-oxazolone, 2.84; in the data set on biotinyl-Trp-oxazolone, 2.25.
“CUAAUUCAAACAAUCGGGCUG [Fam1A.1 aminoacylation ribozyme variant]”: the self-aminoacylation in the data set with biotinyl-Phe-oxazolone is 1.49; in the data set on biotinyl-Ile-oxazolone, 0.805; with biotinyl-Met-oxazolone it was 0.87; in the data set with biotinyl-Val-oxazolone, 0.852; in the data set on biotinyl-Leu-oxazolone it was 1.02; in the data set on biotinyl-Trp-oxazolone, 1.14.
For the sequence “AUUACCAUGGUCAUCAAGUGA [Fam2.1 aminoacylation ribozyme variant]”, the self-aminoacylation with biotinyl-Phe-oxazolone is 5.16; in the data set with biotinyl-Ile-oxazolone, 2.22; in the data set on biotinyl-Met-oxazolone it was 3.69; in the data set on biotinyl-Val-oxazolone, 2.4; in the data set on biotinyl-Leu-oxazolone, 4.04; in the data set on biotinyl-Trp-oxazolone, 5.09.
Turning to “AUUCACCAAGGUCAUUGGGUG [Fam2.2 aminoacylation ribozyme variant]”, the self-aminoacylation in the data set with biotinyl-Phe-oxazolone stood at 49.8; in the data set with biotinyl-Ile-oxazolone it was 4.07; in the data set with biotinyl-Met-oxazolone, 6.78; in the data set with biotinyl-Val-oxazolone, 4.54; in the data set on biotinyl-Leu-oxazolone, 9.21; in the data set on biotinyl-Trp-oxazolone, 6.53.
On to “CUACUUCAAACAGUCGGACUG [Fam1A.1 aminoacylation ribozyme variant]”, for which the self-aminoacylation in the data set on biotinyl-Phe-oxazolone came out at 0.77; in the data set with biotinyl-Ile-oxazolone, 0.853; with biotinyl-Met-oxazolone, 0.697; in the data set on biotinyl-Val-oxazolone, 0.826; with biotinyl-Leu-oxazolone, 0.564; in the data set on biotinyl-Trp-oxazolone, 0.682.
In the case of “CCACCCUUCAAGCAAGCGGUC [Fam1B.1 aminoacylation ribozyme variant]”, the self-aminoacylation turned out to be 0.522 with biotinyl-Phe-oxazolone; 1.01 in the data set on biotinyl-Ile-oxazolone; 1.25 in the data set on biotinyl-Met-oxazolone; 1.4 with biotinyl-Val-oxazolone; 1.36 in the data set on biotinyl-Leu-oxazolone; 0.963 with biotinyl-Trp-oxazolone.
Take “CUACUUCAACCAAUCGGUCUC [Fam1A.1 aminoacylation ribozyme variant]”: the self-aminoacylation with biotinyl-Phe-oxazolone amounted to 23.8; with biotinyl-Ile-oxazolone, 0.904; in the data set on biotinyl-Met-oxazolone it was 0.76; in the data set on biotinyl-Val-oxazolone, 0.98; in the data set on biotinyl-Leu-oxazolone, 1.19; in the data set with biotinyl-Trp-oxazolone, 12.9.
“AUCGACCUAGGUCAUCGGGUG [Fam2.2 aminoacylation ribozyme variant]”: the self-aminoacylation was found to be 8.6 in the data set with biotinyl-Phe-oxazolone; 4.48 with biotinyl-Ile-oxazolone; 5.83 in the data set with biotinyl-Met-oxazolone; 4.44 with biotinyl-Val-oxazolone; 6.35 with biotinyl-Leu-oxazolone; 6.33 in the data set on biotinyl-Trp-oxazolone.
